# Measured values from PMC2568864, “Chemical Dissection of the Link between Streptozotocin, O-GlcNAc, and Pancreatic Cell Death” (Chemistry & Biology, 2008).
# B1: human O-GlcNAcase (hOGA) (Homo sapiens) (protein)
# chain: AAGGARRFLCGVVEGFYGRPWVMEQRKELFRRLQKWELNTYLYAPKDDYKHRMFWREMYSVEEAEQLMTLISAAREYEIEFIYAISPGLDITFSNPKEVSTLKRKLDQVSQFGCRSFALLFDDIDHNMCAADKEVFSSFAHAQVSITNEIYQYLGEPETFLFCPTEYCGTFCYPNVSQSPYLRTVGEKLLPGIEVLWTGPKVVSKEIPVESIEEVSKIIKRAPVIWDNIHANDYDQKRLFLGPYKGRSTELIPRLKGVLTNPNCEFEANYVAIHTLATWYKSNMNGVRKDVVMTDSEDSTVSIQIKLENEGSDEDIETDVLYSPQMALKLALTEWLQEFGVPHQYSSRQVAHSGAKASVVDGTPLVAAPSLNATTVVTTVYQEPIMSQGAALSGEPTTLTKEEEKKQPDEEPMDMVVEKQEETDHKNDNQILSEIVEAKMAEELKPMDTDKESIAESKSPEMSMQEDCISDIAPMQTDEQTNKEQFVPGPNEKPLYTAEPVTLEDLQLLADLFYLPYEHGPKGAQMLREFQWLRANSSVVSVNCKGKDSEKIEEWRSRAAKFEEMCGLVMGMFTRLSNCANRTILYDMYSYVWDIKSIMSMVKSFVQWLGCRSHSSAQFLIGDQEPWAFRGGLAGEFQRLLPIDGANDLFFQPPPLTPTSKVYTIRPYFPKDEASVYKICREMYDDGVGLPFQSQPDLIGDKLVGGLLSLSLDYCFVLEDEDGICGYALGTVDVTPFIKKCKISWIPFMQEKYTKPNGDKELSEAEKIMLSFHEEQEVLPETFLANFPSLIKMDIHKKVTDPSVAKSMMACLLSSLKANGSRGAFCEVRPDDKRILEFYSKLGCFEIAKMEGFPKDVVILGRSL
# Substrate: CC(=O)N[C@H]1[C@H](Oc2ccc3c(C)cc(=O)oc3c2)O[C@H](CO)[C@@H](O)[C@@H]1O
# Assay: purified protein
protein,measurement,value
B1,Km,80 ± 6 µM
